# Experimental data: patent US20210292393A1 (published 2021)
# Target: SARS-CoV-2 spike (S) protein, full length, wild type (SARS-CoV-2, UniProt P0DTC2 14-1208)
row,Binder,median fluorescence fold over isotype [fold over isotype]
1,"anti-SARS-CoV-2 antibody 476 (antibody, V domains shown) VH: QVQLVQSGSELKKPGASVKVSCKASGYTFTSYAMNWVRQAPGQGLEWMGWINTNTGNPTYAQGFTGRFVFSLDTSVSTAYLQISSLKAEDTGVYYCARDHELPNSSSWFGHFEYWGQGTLVTVSS VL: SYELTQPPSVSVSPGQTARITCSGDALPKQYAYWYQQKAGQAPVLVIYKDSERRSGIPERFSGSSSGTTVTLTISGVQAEDEADYYCQSADSSGTSVVFGGGTKLTVL",902
2,"anti-SARS-CoV-2 antibody 492 (antibody, V domains shown) VH: QVQLVESGGGVVQPGRSLRLSCAASGFTFSSYGMHWVRQAPGKGLEWVAVISYDGSNKYYADSVKGRFTISRDNSKNTLYLQMNSLRAEDTAVYYCAKDGILWWWWGYFDYWGQGTLVTVSS VL: QSVLTQPPSVSGAPGQRVTISCTGSSSNIGAGFDVHWYQQLPGTAPKLLIYGNSNRPSGVPDRFSGSKSGTSASLAITGLQAEDEADYYCQSYDSSLSVVFGGGTKLTVL",664
3,"anti-SARS-CoV-2 antibody 471 (antibody, V domains shown) VH: QVQLVESGGGVVQPGRSLRLSCAASGFTFSSYAMHWVRQAPGKGLEWVAVISYDGSNKYYADSVKGRFTISRDNSKNTLYLQMNSLRAEDTAVYYCAKQYSPYCSGGSCYSGASDYWGQGTLVTVSS VL: not shown",770
4,"anti-SARS-CoV-2 antibody 477 (antibody, V domains shown) VH: QVQLVESGGGVVQPGRSLRLSCAASGITFSSYAMHWVRQAPGKGLEWVAVISYDGSDKYHADSVKGRFAISRDNSKNTLYLQMNSLRAEDTAVYYCAKDKGIAVAGTGWIRPDPEYYFDYWGQGTLVTVSS VL: not shown",847
5,"anti-SARS-CoV-2 antibody 470 (antibody, V domains shown) VH: not shown VL: QSALTQPASVSGSPGQSITISCTGTSSDVGSYNLVSWYQQHPGKAPKLMIYEVSKRPSGVSNRFSGSKSGNTASLTISGLQAEDEADYYCCSYAGSSTLVFGGGTKLTVL",1180
6,"anti-SARS-CoV-2 antibody 496 (antibody, V domains shown) VH: QVQLVQSGAEVKKPGASVKVSCKASGYTFTDYYIHWVRQAPGQGLEWMGWINPNSGGTNYAQKFQGRLTMTRDTSISTAYMELSRLRSDDTAVYYCARVYSMFREFIINPYYYYYGLDVWGQGTTVTVSS VL: QSALTQPASVSGSPRQSITISCTGTSSDVGSYNLVSWYQQHPGKAPKLMIYEGSKRPSGVSNRFSGSKSGNTASLAISGLQAEDEANYYCCSYAGSSTLVFGGGTKLTVL",1090
7,"anti-SARS-CoV-2 antibody 475 (antibody, V domains shown) VH: QVQLVESGGGVVQPGRSLRLSCAASGFTFSSYAMHWVRQAPGKGLEWVTFISHEGSNKYYADSVKGRFTISRDNSKNTLYLQMNSLRAEDTAVYYCARTFEYSSSSATGDFDYWGQGTLVTVSS VL: QSVLTQPPSVSGAPGQRVTISCTGSSSNIGAGYDVHWYQQLPGTAPKLLIYGNSNRPSGVPDRFSGSKSGTSASLAITGLQAEDEADYYCQSYDSSLSGVVFGGGTKLTVL",683
8,"anti-SARS-CoV-2 antibody 480 (antibody, V domains shown) VH: QVQLVESGGGVVQPGRSLRLSCAASGFTFSSYAMHWVRQAPGKGLEWVAVISYDGNNKYYADSVKGRFTISRDNSKNTLYLQMNSLRAEDTAVYYCVRTNSGSYYAAFDYWGQGTLVTVSS VL: not shown",690
9,"anti-SARS-CoV-2 antibody 456 (antibody, V domains shown) VH: QVQLQQWGAGLLKPSETLSLTCAVYGGSFSGYYWSWIRQPPGKGLEWIGEINHSGSTNYNPSLKSRVTISVDTSKNQFSLKLSSVTAADTAVYYCARDGSGSYYLSYYFDYWGQGTLVTVSS VL: not shown",595

# Target: SARS-CoV-2 full length spike (S) protein, wild type, expressed on the surface of CHO cells (SARS-CoV-2, UniProt P0DTC2 14-1273)
row,Binder,"median fluorescence intensity, fold over isotype control [fold over isotype]"
1,"antibody 571 (antibody, V domains shown) VH: EVQLVESGGGLVQPGGSLRLSCAASGFTFSTYWMTWVRQAPGKGLEWVANIKHDGSGKYHVDSVKGRFTISRDNAKNSLYLQMNSLRAEDTAVYYCTRDEGGWYDYWGQGTLVTVSS VL: QSALTQPASVSGSPGQSITISCTGTSSDVGSYNPVSWYQQHPGKAPKVMIYEGSKRPSGVSNRFSGSKSGNTASLTISGLQAEDEADYYCCSYARSSTFVVFGGGTKLTVL",8.3
